From paper PMC7019173, “Stapled peptide targeting the CDK4/Cyclin D interface combined with Abemaciclib inhibits KRAS mutant lung cancer growth” (Theranostics, 2020)
Read-outs that look alike come from different tables or passages of the source. Where a SMILES comes first, the peptide text is derived from it. Bridges are numbered along the chain shown (N, C = ends). [ ]: non-standard residue; d: D form. S5 = C=CCCC[C@](C)(N)C(=O)O; TP2‑Rho = not defined here

Tests used:
circular dichroism = details: 50 mM phosphate buffer; pH 7; 20 °C; 100 uM
[1] = Circular dichroism, determination of alpha helical content; type: physicochemical
Procedure: CD experiments were carried out using a Jasco J815 spectropolarimeter. Spectra were recorded with 100 μM of peptides dissolved in phosphate buffer 50 mM, pH 7, using a 1 mm pathlength CD cuvette at 20 °C, over a wavelength range of 190-260 nm. Continuous scanning mode was used, with a response of 1.0 s with 0.1 nm steps and a bandwidth of 2 nm. The signal to noise ratio was improved by acquiring each spectrum over an average of two scans. Baseline was corrected by subtracting the background from the sample spectrum.
Alpha helical content was determined using the following equation: % Helix = ([θ])obs * 100)/(-39500 * (1-2.57/n), where ([θ])obs is the mean residue ellipticity at 222 nm and n the number of peptide bonds.

[2] = biological target: C4D peptide derived from the alpha 5 helix of cyclin D1 (Homo sapiens, UniProt P24385); experiment: Fluorescence titration of TP2-Rho-labelled C4D peptide with CDK4 C helix-derived peptides; type: binding; details: 200 nM TP2-Rho labelled C4D peptide, PBS, 30 °C, average of n = 3 to 5 ± SD
Procedure: TP2-Rho-labelled peptides: peptides were labelled on a unique cysteine residue with a five-fold molar excess of TP2-Rho-maleimide overnight, and then purified from free dye on NAP-5 columns (GE Healthcare), as described previously.
(§1) Fluorescence titration assays were performed in 96-well plates in a thermostated chamber (Clariostar spectrofluorimeter, BMG) at 30 °C in 200 μL phosphate buffer saline using 200 nM fluorescently-labelled peptides or proteins. The fluorescence emission intensity of TP2-Rho-labelled peptides was recorded at 614 nm following excitation at 510 nm. The fluorescence emission intensity of mant-ATP was measured at […]. Data analysis was performed using the GraFit Software (Erathicus Ltd) and curve fitting was performed using a quadratic equation, as described previously. Experiments were performed in triplicate, and Kd values represent the average calculated for n = 3 to 5 experiments, together with standard deviation.

A549 cells = experiment: cells; type: cell-based, human; details: 48 hours, crystal violet, at least two independent experiments (n=4/experiment) ± SD, Grafit; read-out: IC50 A549 cell proliferation
Procedure: Non-small cell lung cancer A549, H358 and PC9 cell lines used in this study. Cell culture media, serum and antibiotics were purchased from Life Technologies. All cell lines were cultured in RPMI + Glutamax supplemented with 10% FCS, 100 units/mL penicillin (G sodium salt) and 100 µg/mL streptomycin at 37 °C in an atmosphere containing 5% CO2. […] Stock solutions of drugs were prepared in DMSO and freshly diluted in PBS to the desired concentration prior to use, then added onto unsynchronized cells cultured to subconfluency (60-70%), which were then further incubated for 24, 48 or 72 h. Cell proliferation was determined by crystal violet assay following treatment with drugs. Cells were washed with PBS, fixed with 3.7% formaldehyde for 10 min and then incubated with 0.1% crystal violet dye for 30 min. After rinsing, crystals were dissolved in 10% acetic acid and viability was determined by measuring absorbance at 595 nm.

[3] = design: species or system mice; details: mouse, in vivo
Procedure: Five weeks after the inoculation of H358-Luc cells, when bioluminescent orthotopic tumours were detected, nude mice were randomly divided into 6 groups. Mice were treated with vehicle (control, n = 14), Abemaciclib (n = 10), or P2-short administered intravenously (n = 10) or intrapulmonary (n = 10), or treated with a combination of Abemaciclib and P2-short (intravenous administration of P2-short, n = 10; intrapulmonary administration of P2-short, n = 10). Mice were daily orally treated for three weeks with 10 mg/kg Abemaciclib. P2-short was either administered via the tail vein three times a week for three weeks under anesthesia (isoflurane/air 4% for induction and 1.5% thereafter) with 200 μL at 0.9 mg/kg, or administered intrapulmonary two times a week for three weeks under anesthesia with 50 μL at 0.45 mg/kg. Intrapulmonary administration of P2-short was performed using a catheter connected to a FMJ-250-high-pressure syringe (Penn-Centur, Inc) and introduced into the trachea of the animals using a dedicated laryngoscope. Mice were observed and weighed three times a week. Tumour growth was followed by in vivo bioluminescence imaging (IVIS Kinetic). After 3 weeks, mice were sacrificed, and blood samples were collected by cardiac puncture for biochemistry analysis ([…]). Lungs were collected for immunohistochemistry analyses. […]

[4] = design: species or system mice; details: mouse, in vivo, iv
[5] = biological target: TP2-Rho-labelled CDK4 C helix peptide (unstapled) (human); experiment: other fluorescence titration; 200 nM TP2-Rho-labelled peptide titrated with GST-cyclins or GST; 96-well plates, 30 °C, 200 μL phosphate buffer saline; quadratic fit; average Kd of n = 3 to 5 experiments
CDK4/cyclin D1 = biological target: T1, CDK4/cyclin D1 (Homo sapiens, UniProt P11802); experiment: Fluorescence titration of mant-ATP with CDK4/cyclin D1 with or without P2short; type: binding; details: 200 nM mant-ATP
T1 construct: GST (N); made in house; host or cells: E. coli
Procedure: Recombinant GST-CDK4 and GST-cyclin D1 were expressed in E. coli by IPTG induction and purified by FPLC chromatography as described previously.
as §1

GST-cyclin D1 = biological target: T2, GST-cyclin D1 (UniProt P24385 1-295); experiment: other fluorescence titration; 200 nM TP2-Rho-labelled peptide titrated with GST-cyclins or GST; 96-well plates, 30 °C, 200 μL phosphate buffer saline; quadratic fit; average Kd of n = 3 to 5 experiments; details: both partners purified
T2 construct: cyclin D1; also called recombinant cyclin; source: E. coli, IPTG induction, purified by FPLC chromatography

GST-cyclin A = GST-cyclin A (UniProt P20248 1-432); experiment: as above; details: both partners purified
GST-cyclin E = GST-cyclin E (UniProt P24864 1-410); experiment: as above; details: both partners purified
GST-cyclin Y = biological target: T3, GST-cyclin Y (UniProt Q8ND76 1-341); experiment: as above; details: both partners purified
T3 construct: cyclin Y; source: E. coli BL21, purified (GSTrap HP, desalting column)
T3 sequence (Q8ND76 whole entry): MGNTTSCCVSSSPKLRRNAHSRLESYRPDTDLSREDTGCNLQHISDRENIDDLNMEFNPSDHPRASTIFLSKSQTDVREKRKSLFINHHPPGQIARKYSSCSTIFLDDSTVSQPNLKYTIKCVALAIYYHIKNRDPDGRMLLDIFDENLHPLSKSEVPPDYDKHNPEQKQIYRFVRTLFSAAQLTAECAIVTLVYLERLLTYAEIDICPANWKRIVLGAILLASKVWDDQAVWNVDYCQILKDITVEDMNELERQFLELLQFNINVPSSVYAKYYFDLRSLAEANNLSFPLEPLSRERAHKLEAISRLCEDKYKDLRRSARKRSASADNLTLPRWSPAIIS

T1 sequence (P11802 whole entry): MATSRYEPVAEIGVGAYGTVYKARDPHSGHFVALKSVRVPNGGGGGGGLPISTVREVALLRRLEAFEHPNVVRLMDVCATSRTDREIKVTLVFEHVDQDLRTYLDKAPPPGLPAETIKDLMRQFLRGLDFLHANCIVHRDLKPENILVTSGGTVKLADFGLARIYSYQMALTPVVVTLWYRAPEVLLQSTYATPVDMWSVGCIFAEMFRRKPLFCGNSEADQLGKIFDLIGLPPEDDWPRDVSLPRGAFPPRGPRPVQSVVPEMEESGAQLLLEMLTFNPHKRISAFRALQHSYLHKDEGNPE
T1 sequence (P24385 whole entry partner): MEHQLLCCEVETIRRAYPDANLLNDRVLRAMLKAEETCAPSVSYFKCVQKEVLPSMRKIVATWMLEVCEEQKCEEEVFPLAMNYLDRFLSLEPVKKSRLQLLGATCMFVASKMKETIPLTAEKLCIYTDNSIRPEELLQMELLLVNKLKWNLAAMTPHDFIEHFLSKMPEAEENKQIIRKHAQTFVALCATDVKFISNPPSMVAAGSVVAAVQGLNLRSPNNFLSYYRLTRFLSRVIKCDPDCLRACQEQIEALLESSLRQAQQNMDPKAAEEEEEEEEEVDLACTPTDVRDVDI
Sequence of GST-cyclin D1 (from UniProt P24385 1-295) (natural protein) (P24385 whole entry): as the sequence (P24385 whole entry partner) above
T2 sequence (P24385 whole entry): as the sequence (P24385 whole entry partner) above

With `CC(=O)N[C@@H](CS)C(=O)N[C@@H](C)C(=O)N1CCC[C@H]1C(=O)N[C@@H](C)C(=O)N[C@@H](CO)C(=O)N[C@H](C(=O)N[C@@H](C)C(=O)N[C@@H](C)C(=O)N[C@@]1(C)CCCC=CCCC[C@@](C)(C(=O)N[C@@H](C)C(=O)N[C@@H](CCCNC(=N)N)C(=O)N[C@@H](CC(C)C)C(N)=O)NC(=O)[C@H](CC(C)C)NC(=O)[C@H](C)NC(=O)[C@H](CCCCN)NC1=O)[C@@H](C)O` (Ac-CAPASTAA[S5]KAL[S5]ARL-NH2; staple 9-13) the helicity (circular dichroism) was 34%.

In the case of `CC[C@H](C)[C@H](NC(=O)[C@@H]1CCCN1C(=O)[C@H](CC(C)C)NC(C)=O)C(=O)N[C@@H](CO)C(=O)N[C@H](C(=O)N[C@H](C(=O)N[C@@H](CCCNC(=N)N)C(=O)N[C@@H](CCC(=O)O)C(=O)N[C@H](C(=O)N[C@@H](C)C(=O)N[C@@H](CC(C)C)C(=O)N[C@@H](CC(C)C)C(=O)N[C@@H](CCCNC(=N)N)C(=O)N[C@@H](CCCNC(=N)N)C(=O)N[C@@H](CC(C)C)C(N)=O)C(C)C)C(C)C)[C@@H](C)O` [CDK4 C peptide short] (Ac-LPISTVREVALLRRL-NH2), the helicity (circular dichroism) is reported as 14%, the “% helix (alpha helical content)” value ([1]; CD, 100 μM peptide in phosphate buffer 50 mM, pH 7, 20 °C, from mean residue ellipticity at 222 nm) is reported as 14% and the “conformation in solution (CD)” value ([1]; phosphate buffer) is reported as “disordered in solution”.

With `CC[C@H](C)[C@H](NC(=O)[C@@H]1CCCN1C(=O)[C@H](CC(C)C)NC(=O)CNC(C)=O)C(=O)N[C@@]1(C)CCCC=CCCC[C@@](C)(C(=O)N[C@H](C(=O)N[C@@H](C)C(=O)N[C@@H](CC(C)C)C(=O)N[C@@H](CC(C)C)C(=O)N[C@@H](CCCNC(=N)N)C(=O)N[C@@H](CCCNC(=N)N)C(=O)N[C@@H](CC(C)C)C(=O)N[C@@H](CCC(=O)O)C(=O)N[C@@H](C)C(=O)N[C@@H](Cc2ccccc2)C(=O)N[C@@H](CCC(=O)O)C(N)=O)C(C)C)NC(=O)[C@H](CCCNC(=N)N)NC(=O)[C@H](C(C)C)NC(=O)[C@H]([C@@H](C)O)NC1=O` [P1] (Ac-GLPI[S5]TVR[S5]VALLRRLEAFE-NH2; staple 5-9) the helicity (circular dichroism) was 16% and the Kd [2] was 140 ± 77 nM.

For `CC[C@H](C)[C@H](NC(=O)[C@@H]1CCCN1C(=O)[C@H](CC(C)C)NC(=O)CNC(C)=O)C(=O)N[C@@H](CO)C(=O)N[C@H](C(=O)N[C@H](C(=O)N[C@@H](CCCNC(=N)N)C(=O)N[C@@]1(C)CCCC=CCCC[C@@](C)(C(=O)N[C@@H](CCCNC(=N)N)C(=O)N[C@@H](CCCNC(=N)N)C(=O)N[C@@H](CC(C)C)C(=O)N[C@@H](CCC(=O)O)C(=O)N[C@@H](C)C(=O)N[C@@H](Cc2ccccc2)C(=O)N[C@@H](CCC(=O)O)C(N)=O)NC(=O)[C@H](CC(C)C)NC(=O)[C@H](C)NC(=O)[C@H](C(C)C)NC1=O)C(C)C)[C@@H](C)O` [P2] (Ac-GLPISTVR[S5]VAL[S5]RRLEAFE-NH2; staple 9-13), the helicity (circular dichroism) was 55% and the Kd [2] was 245 ± 84 nM.

For `CC[C@H](C)[C@H](NC(=O)[C@@H]1CCCN1C(=O)[C@H](CC(C)C)NC(=O)[C@H](C)N)C(=O)N[C@@H](CO)C(=O)N[C@H](C(=O)N[C@H](C(=O)N[C@@H](CCCNC(=N)N)C(=O)N[C@@]1(C)CCCC=CCCC[C@@](C)(C(=O)N[C@@H](CCCNC(=N)N)C(=O)N[C@@H](CCCNC(=N)N)C(=O)N[C@@H](CC(C)C)C(N)=O)NC(=O)[C@H](CC(C)C)NC(=O)[C@H](C)NC(=O)[C@H](C(C)C)NC1=O)C(C)C)[C@@H](C)O` [P2shortA] (H-ALPISTVR[S5]VAL[S5]RRL-NH2; staple 9-13), the helicity (circular dichroism) was 74%, the IC50 (A549 cells) was 10800 ± 260 nM and the “lung damage by HE staining” value [3] was “did not reveal any lung damage”. The blood distribution half-life [4] was 0.4 h and the blood elimination half-life [4] was 39 h.

In the case of `CC[C@H](C)[C@H](NC(=O)[C@@H]1CCCN1C(=O)[C@H](CC(C)C)NC(=O)[C@H](CS)NC(C)=O)C(=O)N[C@@H](CO)C(=O)N[C@H](C(=O)N[C@H](C(=O)N[C@@H](CCCNC(=N)N)C(=O)N[C@@]1(C)CCCC=CCCC[C@@](C)(C(=O)N[C@@H](CCCNC(=N)N)C(=O)N[C@@H](CCCNC(=N)N)C(=O)N[C@@H](CC(C)C)C(N)=O)NC(=O)[C@H](CC(C)C)NC(=O)[C@H](C)NC(=O)[C@H](C(C)C)NC1=O)C(C)C)[C@@H](C)O` [P2short] (Ac-CLPISTVR[S5]VAL[S5]RRL-NH2; staple 9-13), the helicity (circular dichroism) is reported as 77% and the Kd [2] is reported as 56 ± 19 nM.

Molecule `CC[C@H](C)[C@H](NC(=O)[C@@H]1CCCN1C(=O)[C@H](CC(C)C)NC(=O)CNC(C)=O)C(=O)N[C@@]1(C)CCCC=CCCC[C@@](C)(C(=O)N[C@H](C(=O)N[C@@H](C)C(=O)N[C@@H](CC(C)C)C(=O)N[C@@]2(C)CCCC=CCCC[C@@](C)(C(=O)N[C@@H](C)C(=O)N[C@@H](Cc3ccccc3)C(=O)N[C@@H](CCC(=O)O)C(N)=O)NC(=O)[C@H](CC(C)C)NC(=O)[C@H](CCCNC(=N)N)NC(=O)[C@H](CCCNC(=N)N)NC2=O)C(C)C)NC(=O)[C@H](CCCNC(=N)N)NC(=O)[C@H](C(C)C)NC(=O)[C@H]([C@@H](C)O)NC1=O` [P4] (Ac-GLPI[S5]TVR[S5]VAL[S5]RRL[S5]AFE-NH2; staple 5-9, 13-17) has a helicity (circular dichroism) of 26% and a Kd [2] of 109 ± 29 nM.

“GST-cyclin D1 (from UniProt P24385 1-295) (natural protein)” gave a Kd [5] of 43 nM.

For mant-ATP, the Kd (CDK4/cyclin D1; P2short 2-fold excess, read-out: Kd of mant-ATP for CDK4/cyclin D1 in the presence of P2short) was 5 ± 2 nM and the Kd (CDK4/cyclin D1; no peptide, read-out: Kd of mant-ATP for CDK4/cyclin D1 complex alone) was 27 ± 13 nM.

In the case of Ac-C(TP2‑Rho)GLPISTVR[S5]VAL[S5]RRL-NH2 (staple 10-14; reading uncertain) [TP2-Rho-labelled P2short stapled peptide], the Kd (GST-cyclin D1) is reported as 12 nM, the Kd (GST-cyclin A) is reported as 25 nM and the Kd (GST-cyclin E) is reported as 10 nM. The Kd (GST-cyclin Y) was 47 nM.
